From PMC11953334, “Substrates bind to residues lining the ring of asymmetrically engaged bacterial proteasome activator Bpa” (Nature Communications, 2025)

What was measured:
[1] = biological target: full-length 20S proteasome core particle, β-subunit T1A inactive variant (M. tuberculosis H37Rv) (UniProt P9WHU1); experiment: negative stain EM
[2] = biological target: full-length 20S proteasome core particle, β-subunit T1A inactive variant (M. tuberculosis H37Rv) (UniProt P9WHU1); experiment: cryo-EM structure

Substance | percent of proteasomes doubly capped [1] [%] | percent of proteasomes not associated with Bpa [1] [%] | percent of core particles capped by Bpa on both ends [2] [%] | percent of proteasomes singly capped [1] [%] | percent of proteasomes uncapped [1] [%]
bacterial proteasome activator Bpa, full-length, wild-type (from UniProt P9WKX3 1-174) (natural protein) | > 80 | < 1 | > 90 | – | –
covalent dimer of C-terminally truncated Bpa and full-length Bpa (BpaΔC-Bpa) (from UniProt P9WKX3) | – | – | – | 27 | 73
